Experimental data taken from patent publication US11370837 (dated 2022).

Assays:
monkey TIGIT-his = monkey TIGIT-his (monkey); assay: BLI
human TIGIT on CHO cells [1] = target: T1, human TIGIT on CHO cells (human, UniProt Q495A1); assay: competition, CD155 blocking FACS
T1 chain: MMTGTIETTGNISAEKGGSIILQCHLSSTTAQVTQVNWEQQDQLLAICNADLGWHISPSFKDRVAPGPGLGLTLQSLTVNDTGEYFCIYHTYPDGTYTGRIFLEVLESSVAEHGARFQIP

human TIGIT on CHO cells [2] = target: T1, human TIGIT on CHO cells; assay: FACS, CHO-expressed antibody
human TIGIT-his = target: T2, human TIGIT-his (human, UniProt Q495A1); assay: BLI
T2 chain: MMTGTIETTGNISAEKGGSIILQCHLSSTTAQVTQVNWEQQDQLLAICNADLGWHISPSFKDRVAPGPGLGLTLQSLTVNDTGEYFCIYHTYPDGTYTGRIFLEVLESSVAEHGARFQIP

mouse TIGIT-his [3] = target: T3, mouse TIGIT-his (mouse, UniProt P86176); assay: BLI
T3 chain: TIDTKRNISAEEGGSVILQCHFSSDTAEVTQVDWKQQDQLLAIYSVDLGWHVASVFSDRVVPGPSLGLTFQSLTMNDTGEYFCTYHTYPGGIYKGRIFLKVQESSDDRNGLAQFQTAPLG

human TIGIT on CHO cells [4] = target: T1, human TIGIT on CHO cells; assay: FACS
human TIGIT on CHO cells [5] = target: T1, human TIGIT on CHO cells; assay: competition, CD155 blocking FACS
mouse TIGIT-his [6] = target: T3, mouse TIGIT-his; assay: BLI
human TIGIT on CHO cells [7] = target: T1, human TIGIT on CHO cells; assay: competition

Chain of monkey TIGIT-his (monkey) (Q495A1 other isoform, or with tags, fused parts or gaps): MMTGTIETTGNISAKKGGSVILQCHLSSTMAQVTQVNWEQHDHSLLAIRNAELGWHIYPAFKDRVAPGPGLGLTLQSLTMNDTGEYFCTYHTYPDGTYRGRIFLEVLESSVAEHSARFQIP

B1: ADI-30278 (antibody, V domains shown)
VH: QVQLVQSGAEVKKPGASVKVSCKASGYTFTEYYMHWVRQAPGQGLEWMGIISPSAGSTKYAQKFQGRVTMTRDTSTSTVYMELSSLRSEDTAVYYCARDHDIRLAGRLADYWGQGTLVTVSS
VL: DIQMTQSPSSVSASVGDRVTITCRASQGISSWLAWYQQKPGKAPKLLISAASSLQSGVPSRFSGSGSGTDFTLTISSLQPEDFATYYCQQAVILPITFGGGTKVEIK
Monkey TIGIT-his
  Kd: 4.53 nM
Human TIGIT on CHO cells [1]
  IC50: 0.217 nM
Human TIGIT on CHO cells [2]
  EC50: 0.132 nM
Human TIGIT-his
  Kd: 1.75 nM
Mouse TIGIT-his [3]
  binding result: no binding
Human TIGIT on CHO cells [4]
  EC50: 0.409 nM
Human TIGIT on CHO cells [5]
  IC50: 0.116 nM

B2: ADI-30336 (antibody, V domains shown)
VH: QLQLQESGPGLVKPSETLSLTCTVSGGSISSSRYYWGWIRQPPGKGLEWIGSIYYSGSTYYNPSLKSRVTISVDTSKNQFSLKLSSVTAADTAVYYCARDGLYHTPEYFQHWGQGTLVTVSS
VL: EIVLTQSPATLSLSPGERATLSCRASQSVSSYLAWYQQKPGQAPRLLIYDASNRATGIPARFSGSGSGTDFTLTISSLEPEDFAVYYCQQRFAHPYTFGGGTKVEIK
Monkey TIGIT-his
  Kd: 0.556 nM
Human TIGIT on CHO cells [1]
  IC50: 0.409 nM
Human TIGIT on CHO cells [2]
  EC50: 0.13 nM
Human TIGIT-his
  Kd: 1.46 nM
Mouse TIGIT-his [3]
  binding result: no binding
Human TIGIT on CHO cells [4]
  EC50: 0.629 nM
Human TIGIT on CHO cells [5]
  IC50: 0.122 nM

B3: ADI-30286 (antibody, V domains shown)
VH: EVQLLESGGGLVQPGGSLRLSCAASGFTFGPYGMSWVRQAPGKGLEWVSAISGSGASTWYADSVKGRFTISRDNSKNTLYLQMNSLRAEDTAVYYCAKDPGTHYSGYYYIWRYWGQGTLVTVSS
VL: EIVMTQSPATLSVSPGERATLSCRASQSVSSNLAWYQQKPGQAPRLLIYSASTRATGIPARFSGSGSGTEFTLTISSLQSEDFAVYYCQQYVPHPPFTFGGGTKVEIK
Mouse TIGIT-his [6]
  Kd: 134 nM
Monkey TIGIT-his
  Kd: 10.6 nM
Human TIGIT on CHO cells [1]
  IC50: 0.296 nM
Human TIGIT on CHO cells [2]
  EC50: 0.176 nM
Human TIGIT-his
  Kd: 1.76 nM
Human TIGIT on CHO cells [4]
  EC50: 0.446 nM
Human TIGIT on CHO cells [5]
  IC50: 0.189 nM

B4: ADI-30306 (antibody, V domains shown)
VH: QLQLQESGPGLVKPSETLSLTCTVSGGSISSSLYYWGWIRQPPGKGLEWIGSIYYSGSTFYNPSFKSRVTISVDTSKNQFSLKLSSVTAADTAVYYCAREAGRGTTGLLFDYWGQGTLVTVSS
VL: DIQMTQSPSTLSASVGDRVTITCRASQSISSWLAWYQQKPGKAPKLLIYKASSLESGVPSRFSGSGSGTEFTLTISSLQPDDFATYYCQQYGILPRTFGGGTKVEIK
Monkey TIGIT-his
  Kd: 3.44 nM
Human TIGIT-his
  Kd: 2.7 nM
Mouse TIGIT-his [3]
  binding result: no binding

B5: ADI-30268 (antibody, V domains shown)
VH: QVQLVQSGAEVKKPGASVKVSCKASGYTFGSYYMGWVRQAPGQGLEWMGIIDPSGGRTSYARKFQGRVTMTRDTSTSTVYMELSSLRSEDTAVYYCARARTPSSWPYGMDVWGQGTTVTVSS
VL: DIQMTQSPSSLSASVGDRVTITCRASQSINSYLNWYQQKPGKAPKLLIYAASSLQSGVPSRFSGSGSGTDFTLTISSLQPEDFATYYCQQSLLTPFTFGGGTKVEIK
Mouse TIGIT-his [6]
  Kd: 46.4 nM
Monkey TIGIT-his
  Kd: 62.3 nM
Human TIGIT on CHO cells [1]
  IC50: 0.221 nM
Human TIGIT on CHO cells [2]
  EC50: 0.139 nM
Human TIGIT-his
  Kd: 3.29 nM
Human TIGIT on CHO cells [4]
  EC50: 0.329 nM
Human TIGIT on CHO cells [5]
  IC50: 0.14 nM

B6: ADI-30288 (antibody, V domains shown)
VH: EVQLLESGGGLVQPGGSLRLSCAASGFTFGPYGMSWVRQAPGKGLEWVSAISGSGASTWHADSVKGRFTISRDNSKNTLYLQMNSLRAEDTAVYYCAKDPGTDSTGYYYIWRYWGQGTLVTVSS
VL: EIVMTQSPATLSVSPGERATLSCRASQSVSSNLAWYQQKPGQAPRLLIYSASTRATGIPARFSGSGSGTEFTLTISSLQSEDFAVYYCQQYVPHPPFTFGGGTKVEIK
Mouse TIGIT-his [6]
  Kd: 5.7 nM
Monkey TIGIT-his
  Kd: 7.19 nM
Human TIGIT on CHO cells [1]
  IC50: 0.668 nM
Human TIGIT on CHO cells [2]
  EC50: 0.186 nM
Human TIGIT-his
  Kd: 1.31 nM
Human TIGIT on CHO cells [4]
  EC50: 0.475 nM
Human TIGIT on CHO cells [5]
  IC50: 0.224 nM

B7: ADI-30272 (antibody, V domains shown)
VH: QVQLVQSGAEVKKPGASVKVSCKASGYTFTEYYMHWVRQAPGQGLEWMGIISPSAGSTSYAQKFQGRVTMTRDTSTSTVYMELSSLRSEDTAVYYCARDHDIAAAGRLADYWGQGTLVTVSS
VL: DIQMTQSPSSVSASVGDRVTITCRASQGISSWLAWYQQKPGKAPKLLISAASSLQSGVPSRFSGSGSGTDFTLTISSLQPEDFATYYCQQAVILPITFGGGTKVEIK
Human TIGIT on CHO cells [4]
  EC50: 0.61 nM
Human TIGIT on CHO cells [7]
  IC50: 0.404 nM
